These results are taken from PMC9396027, “Comparative transcriptome analysis of MDBK cells reveals that BoIFN-γ augmented host immune responses to bovine herpesvirus 1 infection” (Frontiers in Microbiology, 2022).

This data set concerns the molecule itself. Description: SEC; Superdex 200 size exclusion column, refolded BoIFN-γ; peak mass compared with the monomer mass (14.2 kDa).

B1: Bovine interferon gamma (BoIFN-γ) (ligand, UniProt P07353 24-166, looked up)
chain: QGQFFREIENLKEYFNASSPDVAKGGPLFSEILKNWKDESDKKIIQSQIVSFYFKLFENLKDNQVIQRSMDIIKQDMFQKFLNGSSEKLEDFKKLIQIPVDDLQIQRKAINELIKVMNDLSPKSNLRKRKRSQNLFRGRRASM
notes: Bovine interferon gamma; synthesised gene encoding 122 amino acids, according to GenBank EU276066, nucleotides 24-390; monomer 14.2 kDa; Cloned into pET-21a(+); 122 amino acids is shorter than the mature protein as I recall it, so the construct is probably truncated; also called Bovine IFN-γ; bovine interferon gamma dimer protein
As to B1, the “stoichiometry N” value amounted to 2.
